Test results taken from article PMC3984256 (2014).

How the values were obtained:
[1] = target: T1, Recombinant PCNA (proliferating cell nuclear antigen) (human, UniProt P12004 1-261); assay: SPR; 1000 nM caPep
[2] = target: T1, Recombinant PCNA (proliferating cell …); assay: SPR; 0 nM caPep
[3] = target: T1, Recombinant PCNA (proliferating cell …); assay: SPR; 500 nM caPep

T1 sequence (P12004 whole entry): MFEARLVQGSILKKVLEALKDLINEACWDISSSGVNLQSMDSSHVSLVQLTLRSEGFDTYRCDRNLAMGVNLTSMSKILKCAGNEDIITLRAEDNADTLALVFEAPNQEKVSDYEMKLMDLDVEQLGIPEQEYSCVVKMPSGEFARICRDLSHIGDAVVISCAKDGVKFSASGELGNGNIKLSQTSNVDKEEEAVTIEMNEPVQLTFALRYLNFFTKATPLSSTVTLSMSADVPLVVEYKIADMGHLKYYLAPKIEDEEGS

B1: FEN1 peptide containing the PIP-box (peptide)
peptide: SKSRQGSTQGRLDDFF
Kd [1]: 250 µM | Kd [2]: 84.6 nM | Kd [3]: 3.33 µM
